Columns and labels:
Assay in all cases: flow cytometry, labelled antibody at 1 µg/ml, HEK293T cells expressing the construct
[1] = target: T1, IL-3Rα/GM-CSFRα chimeric protein, region 6 (182-ILVRGRS-188) of IL-3Rα replaced by GM-CSFRα sequence, on … (human, UniProt P26951 19-378)
T1 construct: also called Region 6 (B)
T1 chain: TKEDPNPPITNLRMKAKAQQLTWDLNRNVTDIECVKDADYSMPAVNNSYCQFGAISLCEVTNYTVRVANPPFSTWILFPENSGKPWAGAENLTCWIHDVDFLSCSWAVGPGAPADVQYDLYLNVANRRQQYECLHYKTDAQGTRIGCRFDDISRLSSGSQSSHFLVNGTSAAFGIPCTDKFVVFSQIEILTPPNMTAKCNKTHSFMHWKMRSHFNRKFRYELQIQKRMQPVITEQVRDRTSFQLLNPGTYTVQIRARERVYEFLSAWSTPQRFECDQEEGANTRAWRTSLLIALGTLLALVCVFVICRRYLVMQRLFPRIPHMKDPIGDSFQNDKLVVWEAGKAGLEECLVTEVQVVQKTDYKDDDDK

[2] = target: T2, IL-3Rα/GM-CSFRα chimeric protein, region 7 (192-GIPCTDK-198) of IL-3Rα replaced by GM-CSFRα sequence, on … (human, UniProt P26951 19-378)
T2 construct: also called Region 7 (B)
T2 chain: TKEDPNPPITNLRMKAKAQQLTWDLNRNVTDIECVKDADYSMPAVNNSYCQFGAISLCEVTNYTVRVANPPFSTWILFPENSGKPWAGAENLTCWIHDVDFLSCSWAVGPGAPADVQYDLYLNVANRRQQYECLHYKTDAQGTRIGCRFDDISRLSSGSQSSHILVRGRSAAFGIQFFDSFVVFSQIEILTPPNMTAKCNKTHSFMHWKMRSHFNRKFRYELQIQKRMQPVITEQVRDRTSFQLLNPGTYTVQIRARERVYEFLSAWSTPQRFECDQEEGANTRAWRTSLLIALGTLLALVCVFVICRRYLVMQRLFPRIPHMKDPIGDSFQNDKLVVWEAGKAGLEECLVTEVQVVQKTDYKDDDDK

[3] = target: T3, IL-3Rα/GM-CSFRα chimeric protein, region 3 (91-STWILFPE-98) of IL-3Rα replaced by GM-CSFRα sequence, on … (human, UniProt P26951 19-378)
T3 construct: also called Region 3 (A)
T3 chain: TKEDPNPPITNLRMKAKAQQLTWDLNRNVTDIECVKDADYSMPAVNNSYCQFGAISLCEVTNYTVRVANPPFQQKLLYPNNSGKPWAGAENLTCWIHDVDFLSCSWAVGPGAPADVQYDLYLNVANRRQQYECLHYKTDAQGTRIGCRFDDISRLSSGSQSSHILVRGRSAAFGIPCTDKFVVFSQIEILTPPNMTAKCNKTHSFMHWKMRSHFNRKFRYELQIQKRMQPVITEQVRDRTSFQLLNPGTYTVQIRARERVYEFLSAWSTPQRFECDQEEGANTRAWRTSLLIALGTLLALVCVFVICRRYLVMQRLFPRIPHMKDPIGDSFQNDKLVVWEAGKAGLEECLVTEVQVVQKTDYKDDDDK

[4] = target: T4, IL-3Rα/GM-CSFRα chimeric protein, region 4 (97-…-104) of IL-3Rα replaced by GM-CSFRα sequence, on HEK293T … (human, UniProt P26951 19-378)
T4 construct: also called Region 4 (A-B)
T4 chain: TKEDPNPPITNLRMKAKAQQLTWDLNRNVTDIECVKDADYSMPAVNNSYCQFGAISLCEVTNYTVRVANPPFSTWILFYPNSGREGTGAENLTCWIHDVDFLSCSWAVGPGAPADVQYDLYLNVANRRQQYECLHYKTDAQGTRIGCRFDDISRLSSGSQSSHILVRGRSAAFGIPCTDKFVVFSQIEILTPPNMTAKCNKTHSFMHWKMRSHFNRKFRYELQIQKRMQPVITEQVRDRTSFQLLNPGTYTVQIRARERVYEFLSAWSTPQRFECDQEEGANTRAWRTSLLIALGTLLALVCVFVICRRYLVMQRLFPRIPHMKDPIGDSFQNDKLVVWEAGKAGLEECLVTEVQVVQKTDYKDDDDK

Measured: binding result

B1: Old19 anti-human IL-3Rα human antibody (antibody, human IgG1, V domains shown)
VH: QVQLVQSGAEVKKPGSSVKVSCKASGGTFSSYAISWVRQAPGQGLEWVGGIIPIFGTANYAQKFQGRVTITADESTSTAYMELSSLRSEDTAVYYCARGHKYGPYYFDYWGQGTLVTVSS
VL: DIQMTQSPSSLSASVGDRVTITCRASQGISSWLAWYQQKPEKAPKSLIYAASSLQSGVPSRFSGSGSGTDFTLTISSLQPEDFATYYCQQYNSYPRTFGQGTKVEIK
notes: Human antibody; recombinant form in N5KG1-Val Lark vector (human IgG1, kappa)
no binding (tested: 1 µg/ml): all assays above

— patent US20160280792A1 (Kyowa Kirin, published 2016)
